These results are taken from patent publication US20210355235A1 (YALE UNIVERSITY, published 2021).

Substitutions are numbered along the chain they refer to.

The assay addresses T1, human renalase-1 (Homo sapiens, UniProt Q5VYX0 18-342, limits assumed).
T1 construct: Whole entry named for renalase-1 (Glu at position 37); also called R1; HuRenalase-1
The assay is described as follows: SPR, Biacore T100; biotinylated antibody captured on streptavidin chip, renalase-1 in solution. The method, then:
Binding studies were performed using a Biacore T100. Binding studies were performed at 25° C. using 25 mM Tris pH 8, 150 mM NaCl, 1 mM EDTA, 10% glycerol, 0.005% Tween-20 and 0.1 mg/mL BSA as the running buffer. The biotinylated antibodies were captured on individual streptavidin sensor chip flow cells as shown below. Because the study took two sensor chips, the analysis of two of the mAbs on the second sensor chip was repeated to gather more data. Renalase-1 was tested at 50 nM as the highest concentration in a three-fold dilution series. Each of 5 concentrations was tested in duplicate. Bound complexes were regenerated with a short pulse of 1/1000 phosphoric acid.

T1 sequence (Q5VYX0 18-342 limits assumed): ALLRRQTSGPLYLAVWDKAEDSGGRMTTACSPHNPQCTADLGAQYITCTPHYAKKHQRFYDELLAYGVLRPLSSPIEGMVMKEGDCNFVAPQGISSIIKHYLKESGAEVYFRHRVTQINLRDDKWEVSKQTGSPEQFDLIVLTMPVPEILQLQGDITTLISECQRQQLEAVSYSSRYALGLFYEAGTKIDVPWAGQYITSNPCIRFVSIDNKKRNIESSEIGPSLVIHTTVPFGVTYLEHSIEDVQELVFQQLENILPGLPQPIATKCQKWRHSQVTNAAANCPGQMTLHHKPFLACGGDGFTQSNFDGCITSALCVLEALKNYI

B1: anti-renalase monoclonal antibody 1F-26-1 (antibody, V domains shown)
VH: QSVKESEGGLFKPTDTLTLTCTVSGFSLSSYGVTWVRQAPGNGLEWIGLIGDRGTTFYASWAKSRSTITRNTNLNTVTLKMTRLTAADTATYFCARGSGYGARIWGPGTLVTVSS
VL: AQVLTQTPSPVSAAVGGTVTINCQSSQSVYKNNYLAWYQQKPGQPPKLLIYETSKLASGVPPRFSGSGSGTQFTLTISSVQCDDAATYYCQGGYSGVDFMAFGGGTEVVVKG
notes: Rabbit monoclonal IgG raised against peptide 1F; Biotinylated in the Biacore study; also called Bio-1F 26-1
As for B1, binding was put at a Kd of 2.25 nM, the koff is 0.000102 s⁻¹ and the kon worked out at 45300 M⁻¹ s⁻¹.

B2: anti-renalase monoclonal antibody 1F-42-7 (antibody, V domains shown)
VH: B1 VH with S29T, S30T, F57Y, A62V, K63N, S64G, S114A
VL: B1 VL with V11M, V15L, S28T, K31N, A36S, A57S
notes: Rabbit monoclonal IgG raised against peptide 1F; Biotinylated in the Biacore study; also called Bio-1F 42-7
For B2, binding was characterised by a dissociation constant (Kd) of 2.41 nM, the koff stood at 9.47e-05 s⁻¹ and the kon turned out to be 39300 M⁻¹ s⁻¹.

B3: anti-renalase monoclonal antibody 1D-28-4 (antibody, V domains shown)
VH: QSVEESGGRLVTPGTPLTLTCTVSGFSLSSFAVGWVRQAPGKGLEYIGIISSVGITRYASWAAGRFTISKTSTTVDLKITSPTTEDTATYFCARYGYSGDVNRLDLWGQGTLVTVSS
VL: AQVLTQTASPVSAAVGGTVTINCQASQSVYDNNNLAWYQQKPGQPPKQLIYGASTLASGVSSRFKGSGSGTQFTLTISGVQCDDAATYYCLGEFSCSSADCFAFGGGTEVVVKG
notes: Rabbit monoclonal IgG raised against peptide 1D (RP-220); also called m28-RNLS; Bio-1D 28-4
With B3, the equilibrium dissociation constant (Kd) is 0.316 nM, the koff stood at 2.04e-05 s⁻¹ and the kon was found to be 64700 M⁻¹ s⁻¹.

B4: anti-renalase monoclonal antibody 1D-37-10 (antibody, V domains shown)
VH: QSVEESGGRLVTPGGSLTLTCTVSGFSLSDYAIIWVRQAPGKGLEYIAIIGSSGDTFYATWAKGRFTISKTSTTVDLKMTSLTAADTATYFCAPRYAGTTDYHDAFDPWGPGTLVTVSS
VL: EVVMTQTPASMEAPMGGTVTIKCQASQNIYNYLSWYQQKPGQPPKLLVYKASTLTSGVPSRFKGSGSGTQFTLTISDLECADAATYYCQINYSIYNHYNIIFGGGTEVVVKG
notes: Rabbit monoclonal IgG raised against peptide 1D (RP-220); Biotinylated in the Biacore study; also called m37-RNLS; Bio-1D 37-10
Take B4: the Kd was 2.67 nM, the koff was 4.67e-05 s⁻¹ and the kon was determined as 17500 M⁻¹ s⁻¹.
